From patent US11819540B2, “Methods for treating and preventing neutrophil-derived net toxicity and thrombosis” (CHILDREN'S MEDICAL CENTER CORPORATION, priority 2011, dated 2023)
Entries after “also recorded” stand apart in the source; their conditions may differ.

Test system: blood clots (fibrin and NET scaffold)
Assay: Clot formation in recalcified blood with or without PAF-activated neutrophils (thrombolysis)
Format: cell-based, human
Conditions: tPA 25 μg/mL
Experimental: Fibrin polymerization was induced in blood by recalcification and incubated either in the absence (medium) or presence of neutrophils preactivated by PAF to induce NET formation (neutrophils+PAF). Samples were treated with DNase to digest extracellular traps or tPA for fibrin digestion. […] (Scale bar, 1 cm.) The graph presents quantification of the clots by weighing. […] Data are presented as mean±SEM, n=4; (ANOVA; ***P<0.001). The first bar in each x-axis category represents the untreated samples, the second bar represents the samples treated with DNase, the third bar represents the samples treated with tPA, and the fourth bar represents the samples treated with tPA and DNase.
The relative susceptibility of NETs and fibrin to serve as scaffolds for blood clots to thrombolysis was examined (FIG. 20). Neutrophils were prestimulated with platelet-activating factor to release NETs with recalcified blood under stirring conditions. Two-hundred-fifty microliters of 5×10^6 neutrophils per milliliter in RPMI medium were activated by platelet activating factor (50 μM Calbiochem) at 37° C. under static conditions to induce NET formation. Control samples were 250 μL medium alone, 250 μL of unstimulated neutrophils, or 250 μL of 50 μM PAF in medium. After 10 min, 250 μL of recalcified (40 mM CaCl2) ACD anticoagulated blood was added. The mixture was incubated under stirring conditions (1,000 rpm) at 37° C. using an Eppendorf Thermomixer. Indicated samples were supplemented with tPA (25 μg/mL, Baxter) or DNase 1 (100 U/mL, Worthington Biochem). After 20 min, the blood was passed through a 100-μm cell strainer to isolate the clot. Images were acquired and the clot was determined. Thereafter, 10-μm frozen sections of the clot were prepared and stained for fibrinogen (mouse-antihuman-fibrinogen, Sigma) and VWF (rabbit-antihuman-VWF, Chemicon). Isotype control antibodies were used to determine background staining and DNA was labeled fluorescently by Hoechst 33258 (Invitrogen).

B1: tPA: tissue plasminogen activator (25 μg/mL, Baxter) for fibrin digestion (protein, UniProt P00750 36-562, looked up)
Tissue-type plasminogen …: SYQVICRDEKTQMIYQQHQSWLRPVLRSNRVEYCWCNSGRAQCHSVPVKSCSEPRCFNGGTCQQALYFSDFVCQCPEGFAGKCCEIDTRATCYEDQGISYRGTWSTAESGAECTNWNSSALAQKPYSGRRPDAIRLGLGNHNYCRNPDRDSKPWCYVFKAGKYSSEFCSTPACSEGNSDCYFGNGSAYRGTHSLTESGASCLPWNSMILIGKVYTAQNPSAQALGLGKHNYCRNPDGDAKPWCHVLKNRRLTWEYCDVPSCSTCGLRQYSQPQFRIKGGLFADIASHPWQAAIFAKHRRSPGERFLCGGILISSCWILSAAHCFQERFPPHHLTVILGRTYRVVPGEEEQKFEVEKYIVHKEFDDDTYDNDIALLQLKSDSSRCAQESSVVRTVCLPPADLQLPDWTECELSGYGKHEALSPFYSERLKEAHVRLYPSSRCTSQHLLNRTVTDNMLCAGDTRSGGPQANLHDACQGDSGGPLVCLNDGRMTLVGIISWGLGCGQKDVPGVYTKVTNYLDWIRDNMRP
For B1, the clot formation (absence of activated neutrophils (medium), DNase 100 U/mL) was “prevented clot formation”, the fibrin in clot (presence of PAF-activated neutrophils) was “removed fibrin” and the “clot formation / clot size” value (presence of PAF-activated neutrophils, DNase 100 U/mL) was “did not prevent clot formation; also recorded: reduced clot size”.
